# T1: murine MBP::KSR1 (mouse, UniProt Q61097 1-873)
# T1 sequence (looked up): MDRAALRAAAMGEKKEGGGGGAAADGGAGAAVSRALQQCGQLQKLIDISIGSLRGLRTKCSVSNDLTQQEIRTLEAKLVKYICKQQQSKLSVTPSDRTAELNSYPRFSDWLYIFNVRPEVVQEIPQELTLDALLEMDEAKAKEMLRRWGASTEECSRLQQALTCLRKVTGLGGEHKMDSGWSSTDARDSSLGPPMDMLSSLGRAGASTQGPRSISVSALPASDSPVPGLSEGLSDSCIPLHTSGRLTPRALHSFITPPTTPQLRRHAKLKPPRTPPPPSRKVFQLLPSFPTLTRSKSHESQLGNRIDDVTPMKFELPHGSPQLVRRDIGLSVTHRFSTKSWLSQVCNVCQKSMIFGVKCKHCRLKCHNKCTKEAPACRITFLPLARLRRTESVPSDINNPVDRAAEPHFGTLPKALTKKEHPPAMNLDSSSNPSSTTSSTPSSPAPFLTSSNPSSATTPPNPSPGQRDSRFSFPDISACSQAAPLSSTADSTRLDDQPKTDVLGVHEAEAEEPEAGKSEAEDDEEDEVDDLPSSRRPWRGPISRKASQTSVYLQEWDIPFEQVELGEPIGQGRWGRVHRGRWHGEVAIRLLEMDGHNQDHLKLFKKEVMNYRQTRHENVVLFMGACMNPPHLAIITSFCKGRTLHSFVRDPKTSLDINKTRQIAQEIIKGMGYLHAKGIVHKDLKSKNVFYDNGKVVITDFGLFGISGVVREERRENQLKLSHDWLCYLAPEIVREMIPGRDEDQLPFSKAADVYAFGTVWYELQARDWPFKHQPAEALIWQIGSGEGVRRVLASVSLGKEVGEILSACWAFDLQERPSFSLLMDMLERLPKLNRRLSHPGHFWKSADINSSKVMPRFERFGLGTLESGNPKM
# Target: T1, murine MBP::KSR1
# Assay: pull-down
binder,measurement,value
"GST::NDK-1::His6 (natural protein, C. elegans, UniProt Q93576 1-153, looked up) MSNTERTFIAIKPDGVHRGLVGKIIARFEERGYKLVALKQMTASKAHLEVHYQDLKDKPFFPSLIEYMSSGPVVAMVWQGLDVVKQGRSMLGATNPLASAPGTIRGDFCIQTGRNICHGSDAVDSANREIAHWFKQEEINDYASPFINSWVYE",binding result,binds

# Source: publication PMC3737725 (Development (Cambridge, England), 2013)
